Source: a protein production outcome set (Wang et al. 2014)

Test: label from the status in PepcDB records

Sequence | protein production
MIFLSTVLILCCTWYFLKFLAHFSRKIHDEVRKLSVYTHFLSKWLQSAPATFTYTAIFCAFTLVQRTAPQHLINILTNHSSTSIARVSDKPISTFFDSAFWVADNGAGLLIYVVLFWTVIAWAERKYGSPRMIVITLSGHILASLTTIFLELWAINSGRAPSSLAMATDVGVSYILVAGCAAAILIMRKRMFYIGLIILGLFILLPLFVEHSIWDMGHLFAAFFGFISARLLLKLSPVRTVSSPYELLLKCRSELSNK | failed
MIFMNMIFVDREKELQTLMQRLNSPTFELVIVYGRRRIGKTSLILRAISGRNDSVYYYATERNNLERFREVAQRKFPEVRYAREDWESLLHFLRDKVVIIDEFPYLIEEDKSILSTFQRIVDENRDSRTKLILLGSSISVMEDVLSYRSPLYGRRTASLKVGELKFRDLRHLGFSVEEAVKIYGFAGGVPMYLTRVTPPFLDWVNRELKRVDSFLRDEVDFLLRYEFREIGTYKEILRAISMGKNTLAEIRDYVKVGGEISSYIKKLERIELVTREVPVTESVRSKMGRYVIRDNFTNFWFRFVYPNLSLIEEGTYEITEGEYANYLGHVFERICREYVRDRYRVKKVGRQWWKDVEIDVMGLGNVKVAGECKWSEDVNPHSVLANLERKVERLGHTVDRYVVFARSFSTKEKMEKAELVDINDLNSWFMS | failed
MIFMQTSSYHSVTSVIFDKNTQNHTSIAIWLLICCALVFAMVVVGGVTRLTGSGLSIVEWKPIVGTIPPISQGDWEILLEKYRQIPQYEQINKGMTLDEFKGIFWWEYFHRLLGRLIGLVYFVPFVYFMVRKRVDRVLGTKLLGIFVLGGLQGLMGWYMVMSGLADNVYVSQYRLTAHLGLAFIIYAAMFWVATGLLSPVNTHSADPASVRKLGRFARILTGLIFFMVLSGGLVAGIHAGKAYNTFPLMDGFFIPPALFVLEPWYRNFFDNITTVQFDHRMIAWLLMFTIPLFWFKARQLSLSWSGRLACHLLLIMLCTQVALGITTLLLSVPLTFAAAHQAGAVLLFTAALWVCRKLS | failed
MIFVIFAKKSVRFPGKHSAMINGRRMIDIVASKLKNHGEVILYSKDPELNCDMCRVVRDTTDGIITDSVLSAMDRFGTFFAVAGDMPFITDRIIEKILSSYDGKPTFPVHADGLIEPLFGIYTDAIYDAMRDYIESGGESLIGFLSMADIDRVPIAEEEEKFFVSVNYPEDIKKYADLLTLEHHHHHH | failed
MIFVPIIGWLALFGYGVRLVNEFIEGRYEGPIKLDFMEDLKFGFMVFLKSLPFYIIYIIILFAAMYVSEGLGNIISLLLGFFVVPMLAVNFFRKQTVESFFEFSVLNVVRDNLGEYIITVLKQYALVIIFMVLSIVLVGIPGMLFTNSIFVANMYGRLVERKAEASL | failed
MIFWRLLQEFASTTIHGTKGICHADELIEKGQIDKAEQAVLTLLERKPNDANILHLAGVVALRKGQNSRAVALISKALEYAPNESLYYFNLGNAYLADGAIDLGIQALQDATRLDPERMEAWMNLGLALVEAKRHPEAVAAFERLLEIDPDHEADVAFASALVGAGIMLKESAMVDRGISVLESKLRDGYERYAAGVILARALEHRNRLSEAIRQHQALLEANPEHIGIRNNLARCLVQLGRVEEARTHYRLCVKSAPDKYHAFSALLAGLNYEPNLTAAMHEAEVRNWEKQLALPHYPVEPEFPNERDPERPLKIGYLSPDLRQHVVGHNFLPVLEHRNREQFSVFCYHIGEKQDDMSRRIAALADHWRHVHGASDDEVAALIREDRVDILVDLSGHTSHTQPLVFARKPAPVQVSWLGYFDTTGLATMDWFITDPYSSPPDQKQYFSERLYRMPHTRLYYHPYPDMPAVGQLPAKRNGYITFGCLNNLAKINTEVLDLWAQILAASPTSRLLIQTVALCDRLNLERFRALCVERGLDPARLELRPATSLEKFAQTYHQIDIALDPFPFCGGFTSFDALWMGVPVITLEQQRLAGRQTLSMLMNLGLPHLIASNKTDYVSIALELSRDSSEIEQLRSELRSRFLQSPLIDHCRFTRELEKAYRFFWSHWCTEKKQSSARKGISAPMDAYPSRRQISAT | failed
MIGAVIEAGVGITAALISLIEDKQNFLKKYEVSLIILPILVIFFHSMLIVPIYVFSIISGTYLYSKKFYYPFLLLFVSVFLIYIVYGINYPWKSTDIAISAGMIVVMVFDSREKEYVKQNEMNRGTDRKKEIRRDYVQILAGAVIILLIYYYGIDVSRILVTFGSLVLYVTGNFLAGRPDLLLGKLLNSLERSSTKLGIGSLWFASGILIAYSLHDSTAVVMMIVFSIAVGDSLATIIGTSVSSPKLPINRKKSAAGSIAFFAASAAFAIFVLGYAGLFYAAVATITEAVSGFPLDDNLTVPFILSILAYVSKML | failed
MIGITGVTGKLGSKVAQLISEQGISARHLARNPQRAALYDNAELVQVAFENSLEAVEALKGIDVLLMVSASESPNRLQQHFAFLDAAHEAGVKHIVYTSFYNAATEATFTLARDHAKTEKYIKERGFTYTFLRDNFYLDFFLDLCLNNGEIRGPAGNGKVSAVARQDVSEVATTILAKPDKWKNQLLNMTGPADLSMADIVHFVSEQKGEIIPYIDESIEEAYASRKAWPAQDWEYDAWVSTYTAIKEGKQAGVSSDIERVLGRPATSLEQLVKTIK | failed
MIGITQAEAVLTIELQRPERRNALNSQLVEELTQAIRKAGDGSARAIVLTGQGTAFCAGADLSGDAFAADYPDRLIELHKAMDASPMPVVGAINGPAIGAGLQLAMQCDLRVVAPDAFFQFPTSKYGLALDNWSIRRLSSLVGHGRARAMLLSAEKLTAEIALHTGMANRIGTLADAQAWAAEIARLAPLAIQHAKRVLNDDGAIEEAWPAHKELFDKAWGSQDVIEAQVARMEKRPPKFQGA | not failed
MIGKPRGRRGVNLQILPSAMTVLSICAGLTAIKFALEHQPKAAMALIAAAAILDGLDGRVARILDAQSRMGAEIDSLADAVNFGVTPALVLYVSMLSKWPVGWVVVLLYAVCVVLRLARYNALQDDGTQPAYAHEFFVGMPAPAGAVSMIGLLALKMQFGEGWWTSGWFLSFWVTGTSILLVSGIPMKKMHAVSVPPNYAAALLAVLAICAAAAVLAPYLLIWVIIIAYMCHIPFAVRSQRWLAQHPEVWDDKPKQRRAVRRASRRAHPYRPSMARLGLRKPGRRL | failed
MIGNPVIQVPSSLMPSSSMIACPRVSPNGVPYLPPKPRTRHLVVRAASNSDAAHGQPSSDGGKNPLTVVLDVPRNIWRQTLKPLSDFGFGKRSIWEGGVGLFIVSGATLLALSWAWLRGFQMRSKFRKYQTVFELSHASGICTGTPVRIRGVTVGTIIRVNPSLKNIEAVAEIEDDKIIIPRNSLVEVNQSGLLMETMIDIMPRNPIPEPSVGPLHPECGKEGLIVCDRQTIKGVQGVSLDELVGIFTRIGREVEAIGVANTYSLAERAASVIEEARPLLKKIQAMAEDAQPLLSEFRDSGLLKEVECLTRSLTQASDDLRKVNSSIMTPENTELIQKSIYTLVYTLKNVESISSDILGFTGDEATRKNLKLLIKSLSRLL | failed
MIGRHHPILAWAAVVAIGGGVIVLGGIGLPGAGDWLSDWTRAITSRQAGFHRELGQAVRDLAGEGGGAAGVGLLIASLGYGVFHALGPGHGKAVIGAYAATTATGFRRAALLSLAAALIQATTAVVLVDGAFLVMRGGAHWANRTAERWLEPASYAAILGLGLYLGGRGLLAIVRAGRPSPGGDHRPTHPGQARDEEACAHCGHAHGPTADQVAKATEWRSAAMIALAVGIRPCSGAILVLVVANGLGLWAAGILAAYVMALGTAATVALLAVGARASRLPIAGLARRLPLSPALLGGLAGTLAGLILVVLAGLLLRASLLAPVHPLLG | failed
MIGSTSDGLVPGNTDMPATPTTALTALRTPHPPTGGESMHPRTRTAPALLFAVCLTALAAYPAAADDPVPTTERVSVTLDGAQIDDPSYRPQLTSKGGVVYTSDGPVWSTDHNGVSDAYRNSERVSYNMGAARSYDPSACHTARMIAFVSDRTPAGGTTPSVYVRNTPVGKLSYASHGYQGVPFTWAGQPAMSADCQWMAFSATLPATPDHVEQPRVYRYRIYDGTIEQVSPDSADGSRAAVRPSISADGRYVAYQSSIPHPGGPANDSDIYVRDLETGTLEKASVGRHGRPADRASTGPSLSADGRHVAFDSYASNLAPGDTNGTVNVFVRDLDAGTTRLVKGAGRHAYTAEAALSGDGLHLAYVSAGIRGSRGVPAVYLRDLATGRTRLISVDTRGHRNDRAAGNPSVNPDGTAVAFDSASPDLVPGDTNGTVDVFLRRLGSPEALEHHHHHH | not failed
MIIFFLLIIIFLITALLFLLIKELHLSTASNYIMTIFLSLIILFIILKPEVCISASISGAKLFFFSVFPYVFPFLIITNLIICYDGIEIYSKLLGPILCLPQRLPKKASIVLMVSFLCGYPLGAKYAADLYENDIISFSTFERLVNIASNPGPLFIIGAVGTSMLKNKYLGYILLISCYLSCIAMGIILPNKKDDFSTKKTKWNVSEKHSIGTALKTSTENAVKVILQVMSFIIIFSVIIGILKQSVIFKNSEASFIKTFILGIVEMTNGSSMLSSSSFPIELKVITISFLSSFGGLCVIAQIYSFIGKYKISYLKFISLKVIQGVISSIICFLLFKFLYVNNTISTFNANNNFLSPSHFFTVAVILAVLPILIYKIKKTI | failed
MIIPKMSRHALIGGGTGFIGRNLANHLTKKGYDVTVISRMPGAKRITWHELEKNGIPGSVNAVVNATGQNTLDPTRRWTPGFQQNVWNSRINSSKTLAQAIKSAPQVSSFVNLCGVSHYKPSESKVYTEEDQVQGFDYMSRLCLAWEEAAHTGSEQDCKTTILRCGAVVGHGGGMVQSMWLPFKFGVGGPLGNGNQIMPWIHLHDLCSLIQYIIEKPVPGVVNAVAPEITSNLEFSKAFAKALHRPCIFGVPEFVVQAIFGPERAALVLSGAKVKPQKALSSGFKFQYPSVKEAVTQLTLKG | failed
MIIQKIKQFFVGSERTIKAKKNIIASLLVKMLSIIISLLLVPVTLNYLNSYEYGVWLTLSSILVWINYFDIGLGNGLRNRLTEALAIGDYEKGRIYISTTFAILLILMLTIYLLYAFLQHFISWKSILNISTNHAFTDLNYLVLIVFAFFCISFVLKFVGIIYLAKQQPVINDLFGAIANLMSLIVIYILTLVTDGNLTYVAIVFSSAPAVVYLLAYPFTFYYKYPNLAPKISAINFHYAKGLLGLGFQFFIIQVSCLLMFATSNILIAQLCGPEEVTPYNIAYKYFSVITMGFTIVITPFWSAVTDALIKEDFLWIRKGIINMLKVWLFFLLCSLVMLFVASWVYSFWVNMSIPFYLSLLLFVYISIFNWNNMFAYFVNGMGKIRLQLYCSVISGGIFIPLAILLGQLWGLVGIIGSMCFSLLVSAVLMPIQLKLLLAKSATGIWNK | failed
MIITIANEKGGSGKSTLCLNLCVQLLLDKKDIAALDTDSQKSLEVFNNIRSETSLPNFTLFNRTGNITDTLKQMMDKYEYILIDTKGEHSKESQRAMLLSDWVLIPTTPSQLDTAVLLDMLERIRDIQALNENLKACIVMNRIPTIPTLKEKKALIDFINQNNANESVFLMDNLLSERIAYKRSVSEGMGVMEYNDNKAKNEWSQFYDELNGYLRIKK | failed
MIIVGFIGLVLVIILSAVLSLLRARSEALRQQQQFLAQLCPQLERQKTDRSPLNIPVVPQECEPLYHALNEMLAALPAGMGKDKLTGLINRVGLKRTLASLMPITQGTLVLIDIYRFRYVNDLLGFVFGDILLKQFAERLTSLSLKPKLIARLNGDEFFLYYEQSLSQEQLLHLRGRLQVPFNIKDTPVSVRLQIGCLQLAQHHADVSNMLRRLDLALKKARSTRIAIACYSENDDIRQLRELKIIDSLPNGLQRNHLYMVYQPKQDVSSEGCTQVEALIRWEHEELGVISPGEFIPLAECAGMIDLVSHWALEQVLQQQVKWRLAGISVCVALNLSTRDLDSETLPHELDARLKHYQLPPECLMIEITESTLMADLNKAVDTLVQIRRLGIHLAIDDFGTGHSSLAYLKHLPANEVKIDKVFLQDLKPNQPSEYILEASVNIAKKLGYEVTVEGVETQEVRDLLVKMGVDRIQGLCYAKPMRAVELEMHWHRLCPAPKMLSANLGSHP | failed
